Laboratory results as given in PMC11566906, “Transcription factor PbrERF114 is involved in the regulation of ethylene synthesis during pear fruit ripening”.

B1: PbrERF24 promoter probe (dsDNA)
DNA 1: CCAGTTTACAATGGTGGCCAAGATTGTAAT
DNA 2: ATTACAATCTTGGCCACCATTGTAAACTGG
B2: PbrACS3 promoter probe (PbrERF114 EMSA) (dsDNA)
DNA 1: TTACCATCTTAGGTGGCAGATGAGTTGGAC
DNA 2: GTCCAACTCATCTGCCACCTAAGATGGTAA

Assays:
PbrERF114 [1] = target: T1, PbrERF114 (pear, cultivar Cuiguan?, UniProt A0A5H2MWQ4 1-250); experiment: BLI; saturated at 8382 nM; sentence names PbrERF24-His, but context and legend are PbrERF114; BLI: 137 mM NaCl, 4.3 mM Na2HPO4, 2.7 mM KCl, 1.4 mM KH2PO4, 0.02% Tween-20, pH 7.2 (PBS), streptavidin sensors, temperature not given; EMSA: LightShift Chemiluminescent EMSA kit, buffer not given; conditions: protein: recombinant; tags: His; pCold-TF vector (trigger factor fusion implied); label: biotin
T1 sequence (A0A5H2MWQ4 entry or part of it): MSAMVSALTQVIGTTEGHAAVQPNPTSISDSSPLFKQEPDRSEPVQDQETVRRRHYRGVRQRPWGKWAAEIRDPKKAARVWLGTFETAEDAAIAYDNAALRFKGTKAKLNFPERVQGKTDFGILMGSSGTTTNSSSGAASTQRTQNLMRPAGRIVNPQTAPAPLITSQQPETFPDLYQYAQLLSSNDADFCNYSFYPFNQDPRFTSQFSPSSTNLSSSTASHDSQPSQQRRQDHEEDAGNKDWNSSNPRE

PbrERF114 [2] = target: T1, PbrERF114; experiment: EMSA; signal decreased with 10x, 50x, 200x cold probe; BLI: 137 mM NaCl, 4.3 mM Na2HPO4, 2.7 mM KCl, 1.4 mM KH2PO4, 0.02% Tween-20, pH 7.2 (PBS), streptavidin sensors, temperature not given; EMSA: LightShift Chemiluminescent EMSA kit, buffer not given; conditions: protein: recombinant; tags: His; pCold-TF vector (trigger factor fusion implied); label: biotin

Row | Binder | Kd (PbrERF114 [1]) [nM] | binding result (PbrERF114 [2])
1 | B1 | < 1000 | –
2 | B2 | – | binds
